Source: article PMC10936425
“And” between values parts separate entries of the source, which are not always exact repeats. Equal entries are not always repeated.

What was measured:
[1] = target: K2-2 with a C-terminal His-tag (K2-2^C-His) (not stated (bacteriophage of Klebsiella pneumoniae, phage not named)); experiment: SEC-MALS; 100 microgram protein in 20 mM Tris pH 8.0, 100 mM NaCl, 0.02% NaN3; ENrich SEC 650 column, 0.5 ml/min
[2] = target: K2-2 with a C-terminal His-tag (K2-2^C-His) (not stated (bacteriophage of Klebsiella pneumoniae, phage not named)); experiment: crystal structure; K2-2^C-His crystallised at 15°C, 0.1 M Bicine pH 9.0, 10% PEG-4000, 10% polyacrylic acid 2100 sodium salt; Se-MAD phasing; space group P6(3)
[3] = target: K2-2 (phage tailspike protein, K2 capsular polysaccharide depolymerase), wild type with an N-terminal His-tag (not stated (bacteriophage of Klebsiella pneumoniae, phage not named)); experiment: SEC-MALS; 100 microgram protein in 20 mM Tris pH 8.0, 100 mM NaCl, 0.02% NaN3; ENrich SEC 650 column, 0.5 ml/min
[4] = target: K2-2 (phage tailspike protein, K2 capsular polysaccharide depolymerase), wild type with an N-terminal His-tag (not stated (bacteriophage of Klebsiella pneumoniae, phage not named)); experiment: crystal structure; N-terminally His-tagged K2-2 (wild type, and E323A soaked with 10 mM hydrolyzed K2 CPS products for 18 h); crystallised at 15°C, 0.1 M Bicine pH 9.0, 22% PEG-6000; space groups P2(1) and C2
[5] = target: K2-2 D515A mutant (not stated (bacteriophage of Klebsiella pneumoniae, phage not named)); experiment: SEC-MALS; 100 microgram protein in 20 mM Tris pH 8.0, 100 mM NaCl, 0.02% NaN3; ENrich SEC 650 column, 0.5 ml/min
[6] = target: K2-2 E323A mutant (not stated (bacteriophage of Klebsiella pneumoniae, phage not named)); experiment: crystal structure; N-terminally His-tagged K2-2 (wild type, and E323A soaked with 10 mM hydrolyzed K2 CPS products for 18 h); crystallised at 15°C, 0.1 M Bicine pH 9.0, 22% PEG-6000; space groups P2(1) and C2
[7] = target: K2-2 S424A mutant (not stated (bacteriophage of Klebsiella pneumoniae, phage not named)); experiment: SEC-MALS; 100 microgram protein in 20 mM Tris pH 8.0, 100 mM NaCl, 0.02% NaN3; ENrich SEC 650 column, 0.5 ml/min

## K2-2 with a C-terminal His-tag (K2-2^C-His) (enzyme)
[1]
  stoichiometry N: 4 and 3
[2]
  stoichiometry N: 4

## K2-2 (phage tailspike protein, K2 capsular polysaccharide depolymerase), wild type with an N-terminal His-tag (enzyme)
[3]
  stoichiometry N: 3
[4]
  stoichiometry N: 3

## K2-2 D515A mutant (enzyme)
[5]
  stoichiometry N: 2

## K2-2 E323A mutant (enzyme)
[6]
  stoichiometry N: 3

## K2-2 S424A mutant (enzyme)
[7]
  stoichiometry N: 3
